Results reported in US5688912A, “Peptide ligands which bind to von willebrand factor” (Bayer Corporation, priority 1995, dated 1997).

What was measured:
Format in all cases: binding
[1] = target: T1, von Willebrand Factor (vWF) (Homo sapiens, UniProt P04275); test: Peptide-Toyopearl affinity column chromatography of Koate; vWF in fractions by ELISA, protein by A280; design: Koate® containing vWF, FVIII, and albumin was a product of Bayer Corp; tissue Bayer Corp. (Clayton, N.C.) Koate; host or cells: plasma-derived concentrate (Koate)
Experimental: The gel slurry (1 ml wet gel mixed with 2 ml degassed PBS and 1 M sodium chloride buffer) was transferred into a packing device (from PerSeptive Biosystems, Framingham, Mass.) and packed into a PEEK column (0.75 cm×5 cm from Alltech, Deerfield, Ill.) at a flow rate of 8 ml/min. […] The column was washed with at least 4 bed volumes of binding buffer (10 mM HEPES, 100 mM NaCl, 5 mM calcium chloride at pH 7) and elution buffer (2% acetic acid), then equilibrated with binding buffer.
Protein concentrations were monitored by A280 absorbance. Samples were characterized using vWF ELISA. Briefly, anti-vWF antibody (from Accurate Inc. N.Y.) was coated on each well of a microliter plate (96 wells from Corning, N.Y. 14831) overnight using 100 μl solution of antibody diluted 200 times in 0.1M sodium bicarbonate buffer at pH 9.6. Each well was then blocked with 300 μl solution of 1% BSA in PBS for 1 hour at room temperature. The plate was washed 5 times with PBS. Pure vWF and the collected samples were diluted to a concentration range between 0.02 to 0.2 μg/ml using 1 mg/ml BSA in PBS. Each sample (100 μl) was incubated with the anti-vWF coated well for 1 hour at room temperature and the plate was washed 5 times with PBS plus 0.1% Tween 20. A second anti-vWF antibody with horse radish peroxidase (HRP) conjugate (from DAKO, Glostrup, Denmark) at a concentration of 1 to 500 dilution was introduced to each well and incubated for i hour at room temperature. The plate was washed again with PBS plus 0.1% Tween 20 for 5 times. Substrate ABTS (2,2'-azino-bis(3-ethylbenz-thiazoline-6-sulfonic acid)) and H2 O2 were used for the kinetic reading at 410 nm using Bio Kinetics Reader from BioTek (Winooski, Vt.).
Peptide RLRSFY was directly synthesized (25) onto a modified Toyopearl resin (--(β-Ala)2 -Toyopearl) and the resin was packed in a 1 ml column (0.7×2.5 cm). Koate (Bayer's product containing vWF, FVIII and human albumin) was applied to the column at a flow rate of 2 ml/min in binding buffer (10 mM HEPES, 5 mM calcium chloride and 0.1M NaCl, pH 7). After 1 min of washing in binding buffer, a linear gradient from 0.1 to 1M NaCl in HEPES buffer was applied to the column over 5 min. The elution with high salt concentration was maintained for another 1 min, before 2% acetic acid was used to elute the retained protein. […] The remainder was eluted using 2% acetic acid. In a control experiment in which no peptide was attached to the resin (only --(β-Ala)2 -Toyopearl), almost all protein from 0.1 ml Koate flowed through the column under the same conditions used for the peptide-Toyopearl column.
Single conservative amino acid substitutions at the first three positions of RLRSFY were synthesized directly on (β-Ala)2 -Toyopearl. Amino acid substitutions used for both positions of arginine (R) were histidine (H), lysine (K), glutamine (Q), and asparagine (N). Substitutions for leucine (L) include isoleucine (I), valine (V), phenylalanine (F), and tyrosine (Y). These individual substitutions created 12 unique peptide sequences. (SEQ ID NOS: 1 to 12 ) After the resins were packed into 1 ml glass columns, 0.1 ml Koate was applied to each column and eluted with sodium chloride gradient and 2% acetic acid, same as in FIG. 1. Fractions were collected and analyzed for A280 absorbance and ELISA. […] The substitution of the R at the third position from the N-terminus had no effect on the capture of vWF from Koate. […] Maximum vWF binding occurred when L was substituted for V.

[2] = target: T1, von Willebrand Factor (vWF); test: Purification of vWF from cryoprecipitate PEG filtrate of human plasma on peptide-Toyopearl column; conditions: PEG filtrate treated with TNBP/Tween 20; 54 mg/ml peptide; eluted with 0.35M CaCl2
Experimental: The starting material called PEG filtrate was processed from human plasma cryoprecipitate at Bayer Corp. (Clayton, N.C.). This material contained vWF, FVIII, significant fibrinogen, fibronectin, and IgM. The PEG filtrate was treated with 1% TNBP (tri-n-butylphosphate) and 0.5 % Tween 20 (from Aldrich) at 30° C. for 3 hours. After the treatment, the mixture was directly injected onto peptide affinity columns.
Confirmation of the purification of vWF on RVRSFY-Toyopearl was performed using PEG filtrate as the starting material (FIG. 2). Inclusion of a 0.15M NaCl wash and an additional 0.35M NaCl wash removed the bulk of the albumin. Bound vWF was eluted with 2% acetic acid.
The PEG filtrate was treated with virus inactivation reagents, 1% TNBP and 0.5% Tween 20 at 30° C. for 3 hours. The treated PEG fitrate was injected directly into the column. […] Approximately 74% of the total vWF was eluted with 0.35M CaCl2 (small peak at 10 min).

[3] = target: T1, von Willebrand Factor (vWF); test: Batch adsorption isotherm of vWF onto peptide-Toyopearl, Langmuir fit; design: Koate® containing vWF, FVIII, and albumin was a product of Bayer Corp; tissue Bayer Corp. (Clayton, N.C.) Koate; host or cells: plasma-derived concentrate (Koate)
Experimental: Adsorption isotherms were measured in a batch mode. In a siliconized microcentrifuge tube, 0.1 ml wet gel was mixed with vWF solution of 10 mM HEPES, 5 mM calcium chloride and 0.5M sodium chloride at pH 7 in a total volume of 0.3 ml. The microcentrifuge tube was incubated at 25° C. for 20 minutes, then the gel was separated from the solution by microcentrifugation. The concentrations of vWF in solutions were measured both by absorbance at 280 nm with an extinction coefficient of 1.2 for 1 mg/ml vWF and by ELISA.
Interactions between RVRSFY directly synthesized on Toyopearl and vWF were studied through adsorption isotherm measurements. Because vWF consists of a wide range of molecular weights, complex theoretical analyses are required to obtain binding constants from the adsorption isotherms. In addition, different multimers of vWF may have different binding constants. To simplify the analyses, vWF with molecular weight around 1000 kDa was fractionated from Koate using size exclusion chromatography with Bio-Gel A-5M gel (BioRad) and analyzed by nonreducing agarose gel electrophoresis.
An increase of peptide density increases adsorption of vWF. A minimum peptide density, 32 mg peptide Ac-RVRSFYK/ml resin ([…]), is required for the binding of vWF to the peptide. The Langmuir equation was used to fit these isotherms, and the association constants and maximum capacities obtained from curve fits are listed in Table 3. They show an increase of association constant and maximum binding capacity with an increase of peptide density mobilized on the Toyopearl resin.

[4] = target: T1, von Willebrand Factor (vWF); test: Peptide-Toyopearl affinity column chromatography of Koate; vWF in fractions by ELISA, protein by A280; design: Koate® containing vWF, FVIII, and albumin was a product of Bayer Corp; tissue Bayer Corp. (Clayton, N.C.) Koate; host or cells: plasma-derived concentrate (Koate); conditions: for percentage of vWF eluted: 0.5M calcium chloride

Substance: Ac-RVRSFYK-amide (Ac-RVRSFYK-NH2) [Ac-RVRSFYK-Toyopearl, peptide immobilized to Toyopearl-Epoxy-650M resin through the C-terminal lysine]
- vWF recovered in all fractions (ELISA) ([1]; 0.1 ml Koate, 0.4 ml column, 54 mg/ml peptide): 87.8%
- percentage of vWF eluted ([1]; 0.5M calcium chloride, 30° C.): 89%
- vWF captured by the peptide column ([1]; Koate, between pH 6 and 7): about 95%
- vWF captured by the peptide column ([1]; Koate, solution pH 5): 91%
- captured vWF eluted ([1]; calcium and magnesium concentrations higher than 0.3M): about 80%
- release of captured vWF by salt elution ([1]; elution with 2M NaCl, Koate): not released
- total vWF eluted [2]: Approximately 74%
- Association constant ([3]; peptide density 32 mg/ml): 882000 M⁻¹
- Maximum capacity ([3]; peptide density 32 mg/ml): 2.32 mg/mL
- Association constant ([3]; peptide density 45 mg/ml): 1.12e+06 M⁻¹
- Maximum capacity ([3]; peptide density 45 mg/ml): 7.3 mg/mL
- Association constant ([3]; peptide density 54 mg/ml): 1.68e+06 M⁻¹
- Maximum capacity ([3]; peptide density 54 mg/ml): 9.7 mg/mL
- Association constant ([3]; peptide density 60 mg/ml): 2.06e+06 M⁻¹
- Maximum capacity ([3]; peptide density 60 mg/ml): 10.33 mg/mL
- total vWF in the CaCl2 fraction (ELISA) ([4]; 0.1 ml Koate, 0.4 ml column, 54 mg/ml peptide, 0.5M CaCl2): 82.5%
- percentage of vWF eluted ([4]; 22° C.): 80%
- percentage of vWF eluted ([4]; 26° C.): 85%
- vWF captured by the peptide column ([4]; Koate, solution pH 4.6): 65%
